According to patent US20250090677A1 (MULTITUDE THERAPEUTICS, published 2025):

Columns and labels:
mouse CDH6-ECD-His = molecular target: T1, mouse CDH6-ECD-His (mouse, UniProt P97326 54-615); test: ELISA, antigen coated at 1 ug/mL, 3-fold antibody dilutions, HRP anti-human antibody, OD450
T1 construct: extracellular domain; Bought protein; not shown: His tag
T1 sequence (looked up): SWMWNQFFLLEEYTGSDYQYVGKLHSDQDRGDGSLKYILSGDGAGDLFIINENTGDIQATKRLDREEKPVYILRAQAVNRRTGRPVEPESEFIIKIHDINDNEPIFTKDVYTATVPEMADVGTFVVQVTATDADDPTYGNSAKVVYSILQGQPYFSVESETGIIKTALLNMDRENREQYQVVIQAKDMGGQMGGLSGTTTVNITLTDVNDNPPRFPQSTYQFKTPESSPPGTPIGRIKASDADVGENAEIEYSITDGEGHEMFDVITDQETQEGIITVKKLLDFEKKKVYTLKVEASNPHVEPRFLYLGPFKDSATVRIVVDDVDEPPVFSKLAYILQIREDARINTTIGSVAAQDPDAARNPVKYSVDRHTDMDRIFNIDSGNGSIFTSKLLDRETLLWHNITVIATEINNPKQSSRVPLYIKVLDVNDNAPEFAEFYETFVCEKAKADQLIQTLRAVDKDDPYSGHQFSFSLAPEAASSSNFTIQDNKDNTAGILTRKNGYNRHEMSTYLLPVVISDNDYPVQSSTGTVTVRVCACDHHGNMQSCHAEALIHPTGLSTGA
Protocol: (§1) CDH9 and […] are the most closely related family members to CDH6. Binding of CL069707-H1L1 on human CDH6, CDH9 and CDH10 ECD domains were analyzed by ELISA Binding Assay. Human […], CDH9-ECD-His and CDH10-ECD-His antigens were obtained from Acro Biosystems, Inc. 100 μL of 1 μg/mL of the antigens diluted in PBS were added to 96 well plates and incubated in 4° C. overnight. The plates were washed 3 times with 300 μL of washing buffer. Then 100 μL/well of 1% BSA blocking reagent were added to the plates, and incubated at 37° C. for 1 h then the blocking reagent were discarded. A 3-fold serial dilution of CL069707-H1L1 was added to the plates and then incubated at 37° C. for 1 h. Then the plates were washed 3 times with 300 μL of washing buffer. 100 μL/well of HRP-conjugated anti-Human antibody diluted in 1% BSA were added to the plates and then incubated at 37° C. for 1 h. The plates were washed 3 times with 300 μL of washing buffer. 100 μL/well of TMB substrate were added to the plates and incubated for about 10 min in room temperature. Then the reaction was stopped with 100 μL/well of stopping solution. OD450 was read with a plate reader and the data were processed.
Binding of CL069707-H1L1 on human, cyno monkey, mouse or rat CDH6 antigen were analyzed by ELISA. Human, cyno monkey, mouse and rat CDH6-ECD-His antigens were obtained from Acro Biosystems, Inc. ELISA were done with the same methods as in example 3.1. CL069707-H1L1 binds to human, cyno monkey, mouse and rat CDH6-ECD-His antigens with similar EC50.

human CDH10-ECD-His = molecular target: T2, human CDH10-ECD-His (human, UniProt Q9Y6N8 55-613); test: ELISA, antigen coated at 1 ug/mL, 3-fold dilutions of CL069707-H1L1, HRP anti-human antibody, OD450
T2 construct: extracellular domain; Bought protein; also called CDH10-ECD-His protein; not shown: His tag
T2 sequence (looked up): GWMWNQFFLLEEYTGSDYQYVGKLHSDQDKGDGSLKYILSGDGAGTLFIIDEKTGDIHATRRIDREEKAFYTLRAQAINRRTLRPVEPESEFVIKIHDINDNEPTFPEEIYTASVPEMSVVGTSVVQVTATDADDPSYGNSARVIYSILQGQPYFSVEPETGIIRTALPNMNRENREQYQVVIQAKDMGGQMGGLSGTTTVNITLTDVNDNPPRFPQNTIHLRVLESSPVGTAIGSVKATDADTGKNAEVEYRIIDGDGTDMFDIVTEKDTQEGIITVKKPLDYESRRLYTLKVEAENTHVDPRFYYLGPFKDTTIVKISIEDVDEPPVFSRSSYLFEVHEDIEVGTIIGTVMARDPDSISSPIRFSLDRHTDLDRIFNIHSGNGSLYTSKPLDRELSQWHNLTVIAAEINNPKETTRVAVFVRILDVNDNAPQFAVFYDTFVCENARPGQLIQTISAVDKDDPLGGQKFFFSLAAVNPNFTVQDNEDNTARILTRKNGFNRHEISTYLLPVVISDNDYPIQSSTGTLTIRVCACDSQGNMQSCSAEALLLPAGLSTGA
Protocol: as §1

human CDH9-ECD-His = molecular target: T3, human CDH9-ECD-His (human, UniProt Q9ULB4 54-615); test: as above
T3 construct: extracellular domain; Bought protein; also called CDH9-ECD-His protein; not shown: His tag
T3 sequence (looked up): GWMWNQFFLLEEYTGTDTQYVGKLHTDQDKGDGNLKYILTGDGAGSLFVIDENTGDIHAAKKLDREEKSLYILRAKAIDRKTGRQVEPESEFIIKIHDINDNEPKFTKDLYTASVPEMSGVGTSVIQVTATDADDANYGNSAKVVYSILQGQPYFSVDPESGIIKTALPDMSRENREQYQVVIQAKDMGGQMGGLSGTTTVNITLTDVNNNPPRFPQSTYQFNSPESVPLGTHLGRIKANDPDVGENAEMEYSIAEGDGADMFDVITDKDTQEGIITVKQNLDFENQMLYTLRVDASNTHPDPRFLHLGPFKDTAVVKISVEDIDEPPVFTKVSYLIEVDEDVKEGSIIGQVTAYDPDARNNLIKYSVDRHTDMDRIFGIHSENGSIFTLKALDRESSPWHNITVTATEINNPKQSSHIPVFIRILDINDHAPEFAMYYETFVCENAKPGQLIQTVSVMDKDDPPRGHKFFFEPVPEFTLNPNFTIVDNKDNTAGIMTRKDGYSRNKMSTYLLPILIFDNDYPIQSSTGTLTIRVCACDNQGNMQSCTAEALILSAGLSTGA
Protocol: as §1

B1: CL069707-H1L1 (antibody, human IgG1, kappa, V domains shown)
VH: EVQLVESGGGLVQPGGSLRLSCAASGFTFTTYAMNWVRQAPGKGLEWVARIRIKNNNYATYYADSVTDRFTISRDDSKNSLYLQMNSLKTEDTAVYYCVRPDYGNYGLAYWGQGTLVTVSS
VL: DIQLTQSPSSLSASVGDRVTITCSASSSISSHYLHWYQQKPGKSPKLLIYRSFYLASGVPSRFSGSGSGTDFTLTISSLQPEDFATYYCQQDIVPLTFGQGTKLEIKR
notes: Humanized IgG1/kappa, produced in 293 cells; also called humanized CL069707-H1L1
Mouse CDH6-ECD-His
  EC50 (read off the curve): ~0.1 nM
Human CDH10-ECD-His
  binding result: no binding (tested: 100 nM)
Human CDH9-ECD-His
  binding result: no binding (tested: 100 nM)
